According to article PMC4335062, “Data-Driven Prediction and Design of bZIP Coiled-Coil Interactions” (PLoS Computational Biology, 2015):
Values belong to the molecule of their own block, whether it stands above or below them. Where no end group is shown, it is not given here.

Key:
XBP1/CREBZF heterodimer = molecular target: T1, XBP1/CREBZF heterodimer (Homo sapiens, UniProt P17861); experiment: Competition FRET assay; format: binding; details: 23°C; 10 nM XBP1 (fluorescein) with 50 nM CREBZF (TAMRA); unlabeled design
T1 construct: made in house
Method: (§1) In the competition form of the assay, a FRET pair was made by mixing 10 nM of the donor-labeled peptide with a specified concentration of the acceptor-labeled peptide in 1 mM TCEP-HCl, and 20 μL of this solution was added to the wells after unlabeled design was titrated in 2-fold dilutions over the wells to a final concentration ranging from 0 to 2.5 μM. The amount of acceptor used varied for each curve, taking into account the Kd of the FRET complex in order to obtain a good lower baseline for fitting purposes. Samples were equilibrated for one hour before reading the plates; repeated reading of the plates over several hours gave no change in signal.
(§2) For the competition experiments, the IC50 was determined in MATLAB by fitting the binding data to the equation signal=a+b−a/(1+x/c)^H , where a and b are the lower and upper baselines, c is the IC50 value, x is the inhibitor concentration, and the Hill coefficient H was set to 1. Ki values were calculated as in Fu et al..

ATF4/FOS heterodimer = molecular target: T2, ATF4/FOS heterodimer (Homo sapiens, UniProt P18848); experiment: Competition FRET assay; format: binding; details: 37°C; 10 nM ATF4 (fluorescein) with 200 nM FOS (TAMRA); unlabeled design
T2 construct: made in house
Method: as §1, §2

[1] = molecular target: X-box binding protein 1 (human) (UniProt P17861); experiment: FRET or BRET; direct-binding FRET in 384-well plates; rhodamine-labelled design (acceptor) titrated 0 to 1 uM into 10 nM fluorescein-labelled bZIP (donor); 150 mM KCl, 50 mM potassium phosphate pH 7.4, 0.1% Tween-20, 0.1% BSA; 37 °C
Chain of X-box binding protein 1 (human) (P17861 whole entry): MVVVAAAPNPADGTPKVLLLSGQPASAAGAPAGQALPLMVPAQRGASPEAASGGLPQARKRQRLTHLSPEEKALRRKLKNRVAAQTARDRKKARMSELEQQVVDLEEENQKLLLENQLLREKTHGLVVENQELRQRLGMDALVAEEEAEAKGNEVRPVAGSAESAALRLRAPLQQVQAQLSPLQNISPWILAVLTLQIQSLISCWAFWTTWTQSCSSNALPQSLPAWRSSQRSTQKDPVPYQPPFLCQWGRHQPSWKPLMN

[2] = molecular target: Activating Transcription Factor (ATF) 3 (human) (UniProt P18847); experiment: as above
Chain of Activating Transcription Factor (ATF) 3 (human) (P18847 whole entry): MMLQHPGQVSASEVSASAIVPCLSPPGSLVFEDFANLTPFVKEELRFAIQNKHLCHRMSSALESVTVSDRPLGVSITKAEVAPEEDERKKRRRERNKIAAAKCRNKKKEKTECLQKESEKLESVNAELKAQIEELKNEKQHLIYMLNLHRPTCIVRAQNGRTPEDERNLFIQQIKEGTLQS

NFE2L3 (human) = NFE2L3 (human) (UniProt Q9Y4A8); experiment: as above
Chain of NFE2L3 (human) (Q9Y4A8 whole entry): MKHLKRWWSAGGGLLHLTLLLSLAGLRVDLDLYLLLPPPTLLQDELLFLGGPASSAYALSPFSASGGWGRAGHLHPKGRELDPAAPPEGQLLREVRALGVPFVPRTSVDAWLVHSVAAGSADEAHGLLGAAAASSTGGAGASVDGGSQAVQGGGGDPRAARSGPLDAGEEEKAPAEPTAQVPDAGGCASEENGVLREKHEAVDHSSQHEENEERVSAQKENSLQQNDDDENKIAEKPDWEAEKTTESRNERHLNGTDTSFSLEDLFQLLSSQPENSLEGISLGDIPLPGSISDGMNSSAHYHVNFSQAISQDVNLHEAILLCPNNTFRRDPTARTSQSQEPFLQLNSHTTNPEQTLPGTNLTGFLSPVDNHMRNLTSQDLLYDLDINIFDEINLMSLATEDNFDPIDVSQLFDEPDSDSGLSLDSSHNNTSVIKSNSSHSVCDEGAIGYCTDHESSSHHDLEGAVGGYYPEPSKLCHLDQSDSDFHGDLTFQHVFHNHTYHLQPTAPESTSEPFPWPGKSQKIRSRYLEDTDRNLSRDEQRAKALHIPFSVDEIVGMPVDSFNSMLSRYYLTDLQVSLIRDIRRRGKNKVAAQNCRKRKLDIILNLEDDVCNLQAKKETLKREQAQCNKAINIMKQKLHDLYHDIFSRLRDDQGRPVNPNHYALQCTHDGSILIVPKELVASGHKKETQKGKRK

ATF6B = ATF6B (Homo sapiens, UniProt Q99941); experiment: as above
MAFG [3] = molecular target: T3, MAFG (Homo sapiens, UniProt O15525); experiment: as above
T3 sequence (O15525 whole entry): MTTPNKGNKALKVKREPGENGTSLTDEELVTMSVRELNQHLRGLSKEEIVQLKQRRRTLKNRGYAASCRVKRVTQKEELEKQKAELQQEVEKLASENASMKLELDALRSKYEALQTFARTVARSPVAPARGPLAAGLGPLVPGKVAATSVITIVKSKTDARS

NFIL3 (human) = NFIL3 (human) (UniProt Q16649); experiment: FRET or BRET; direct-binding FRET in 384-well plates; rhodamine-labelled design (acceptor) titrated 0 to 1 uM into 10 nM fluorescein-labelled bZIP (donor); 150 mM KCl, 50 mM potassium phosphate pH 7.4, 0.1% Tween-20, 0.1% BSA; 23 °C
Chain of NFIL3 (human) (Q16649 whole entry): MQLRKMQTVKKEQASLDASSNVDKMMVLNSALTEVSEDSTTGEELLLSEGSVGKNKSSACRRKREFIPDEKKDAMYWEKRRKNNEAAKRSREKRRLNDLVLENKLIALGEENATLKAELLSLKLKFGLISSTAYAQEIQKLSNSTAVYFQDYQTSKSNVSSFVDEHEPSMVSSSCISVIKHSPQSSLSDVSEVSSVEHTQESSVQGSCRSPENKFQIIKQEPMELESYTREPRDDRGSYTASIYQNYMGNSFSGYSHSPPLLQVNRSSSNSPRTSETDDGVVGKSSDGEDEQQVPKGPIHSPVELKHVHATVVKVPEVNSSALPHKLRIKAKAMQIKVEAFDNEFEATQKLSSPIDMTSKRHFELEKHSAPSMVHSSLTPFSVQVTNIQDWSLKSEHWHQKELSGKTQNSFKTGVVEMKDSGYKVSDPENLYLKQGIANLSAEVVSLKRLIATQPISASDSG

FOS [4] = molecular target: T4, FOS (Homo sapiens, UniProt P01100); experiment: as above
T4 sequence (P01100 whole entry): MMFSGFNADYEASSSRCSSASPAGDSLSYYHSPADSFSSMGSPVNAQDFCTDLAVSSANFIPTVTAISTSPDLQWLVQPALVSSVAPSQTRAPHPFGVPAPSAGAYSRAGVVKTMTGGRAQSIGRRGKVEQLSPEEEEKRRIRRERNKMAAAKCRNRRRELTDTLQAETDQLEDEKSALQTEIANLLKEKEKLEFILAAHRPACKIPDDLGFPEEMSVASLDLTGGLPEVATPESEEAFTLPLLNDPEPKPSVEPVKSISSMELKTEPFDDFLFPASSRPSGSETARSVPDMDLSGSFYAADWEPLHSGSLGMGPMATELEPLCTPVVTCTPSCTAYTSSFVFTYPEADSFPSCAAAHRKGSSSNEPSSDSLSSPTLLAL

MAF = MAF (Homo sapiens, UniProt O75444); experiment: as above
Chain of MAF (O75444 whole entry): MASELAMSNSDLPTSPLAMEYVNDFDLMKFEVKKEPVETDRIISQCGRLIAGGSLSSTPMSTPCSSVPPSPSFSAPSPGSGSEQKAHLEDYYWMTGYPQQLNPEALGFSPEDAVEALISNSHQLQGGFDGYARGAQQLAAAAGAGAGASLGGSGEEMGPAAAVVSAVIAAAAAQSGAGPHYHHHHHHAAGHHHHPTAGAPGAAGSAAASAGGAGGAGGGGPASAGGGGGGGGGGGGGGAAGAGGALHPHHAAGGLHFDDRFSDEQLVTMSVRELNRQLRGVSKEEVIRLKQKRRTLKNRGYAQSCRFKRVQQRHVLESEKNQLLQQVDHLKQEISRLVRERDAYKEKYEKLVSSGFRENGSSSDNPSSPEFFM

MAFG [5] = molecular target: T3, MAFG; experiment: as above
BACH2 = BACH2 (Homo sapiens, UniProt Q9BYV9); experiment: FRET or BRET; direct-binding FRET in 384-well plates; rhodamine-labelled design (acceptor) titrated 0 to 1 uM into 10 nM fluorescein-labelled bZIP (donor); 150 mM KCl, 50 mM potassium phosphate pH 7.4, 0.1% Tween-20, 0.1% BSA; 37 °C
Chain of BACH2 (Q9BYV9 whole entry): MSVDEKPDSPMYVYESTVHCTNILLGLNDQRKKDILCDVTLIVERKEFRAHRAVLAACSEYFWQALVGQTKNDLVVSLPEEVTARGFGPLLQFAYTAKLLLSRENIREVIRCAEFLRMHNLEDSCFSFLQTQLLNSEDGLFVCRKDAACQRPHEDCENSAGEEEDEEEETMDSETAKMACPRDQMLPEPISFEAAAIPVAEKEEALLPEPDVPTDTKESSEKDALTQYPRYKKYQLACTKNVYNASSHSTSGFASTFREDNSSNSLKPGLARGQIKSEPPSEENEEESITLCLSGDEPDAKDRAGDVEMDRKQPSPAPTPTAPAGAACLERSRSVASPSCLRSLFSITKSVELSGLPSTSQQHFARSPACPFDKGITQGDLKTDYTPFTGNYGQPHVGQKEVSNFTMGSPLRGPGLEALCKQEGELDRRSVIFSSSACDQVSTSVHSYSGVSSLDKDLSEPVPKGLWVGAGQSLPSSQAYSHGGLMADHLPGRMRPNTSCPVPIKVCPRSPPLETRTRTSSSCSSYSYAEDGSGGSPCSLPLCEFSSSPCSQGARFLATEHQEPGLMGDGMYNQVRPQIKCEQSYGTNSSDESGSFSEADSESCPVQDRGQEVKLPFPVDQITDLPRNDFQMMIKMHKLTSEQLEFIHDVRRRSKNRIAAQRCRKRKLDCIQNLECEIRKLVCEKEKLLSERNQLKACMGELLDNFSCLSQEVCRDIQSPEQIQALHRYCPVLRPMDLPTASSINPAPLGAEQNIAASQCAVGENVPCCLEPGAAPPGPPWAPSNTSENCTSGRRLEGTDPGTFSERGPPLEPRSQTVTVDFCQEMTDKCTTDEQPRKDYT

FOS [6] = molecular target: T4, FOS; experiment: as above
HLF (human) = HLF (human) (UniProt Q16534); experiment: as above
Chain of HLF (human) (Q16534 whole entry): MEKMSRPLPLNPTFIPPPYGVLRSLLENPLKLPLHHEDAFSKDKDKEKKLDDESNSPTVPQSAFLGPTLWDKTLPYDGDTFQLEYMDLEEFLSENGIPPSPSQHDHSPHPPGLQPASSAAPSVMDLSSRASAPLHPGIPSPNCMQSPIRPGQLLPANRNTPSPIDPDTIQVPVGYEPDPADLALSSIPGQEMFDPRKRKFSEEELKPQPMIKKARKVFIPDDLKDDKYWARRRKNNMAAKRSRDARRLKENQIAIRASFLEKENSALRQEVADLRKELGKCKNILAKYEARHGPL

CREBZF (human) = CREBZF (human) (UniProt Q9NS37); experiment: FRET or BRET; direct-binding FRET in 384-well plates; rhodamine-labelled design (acceptor) titrated 0 to 1 uM into 10 nM fluorescein-labelled bZIP (donor); 150 mM KCl, 50 mM potassium phosphate pH 7.4, 0.1% Tween-20, 0.1% BSA; 23 °C
Chain of CREBZF (human) (Q9NS37 whole entry): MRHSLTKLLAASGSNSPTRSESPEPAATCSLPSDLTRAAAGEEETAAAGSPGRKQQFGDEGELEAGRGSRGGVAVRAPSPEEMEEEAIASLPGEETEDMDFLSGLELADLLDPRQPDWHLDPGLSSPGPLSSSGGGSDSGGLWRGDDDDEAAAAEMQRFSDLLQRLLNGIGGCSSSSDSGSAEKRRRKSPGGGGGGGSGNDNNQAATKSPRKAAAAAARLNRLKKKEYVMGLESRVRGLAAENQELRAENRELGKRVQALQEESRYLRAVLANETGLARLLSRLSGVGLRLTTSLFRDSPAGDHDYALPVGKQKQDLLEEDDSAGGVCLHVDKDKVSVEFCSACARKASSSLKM

JUN = JUN (Homo sapiens, UniProt P05412); experiment: as above
Chain of JUN (P05412 whole entry): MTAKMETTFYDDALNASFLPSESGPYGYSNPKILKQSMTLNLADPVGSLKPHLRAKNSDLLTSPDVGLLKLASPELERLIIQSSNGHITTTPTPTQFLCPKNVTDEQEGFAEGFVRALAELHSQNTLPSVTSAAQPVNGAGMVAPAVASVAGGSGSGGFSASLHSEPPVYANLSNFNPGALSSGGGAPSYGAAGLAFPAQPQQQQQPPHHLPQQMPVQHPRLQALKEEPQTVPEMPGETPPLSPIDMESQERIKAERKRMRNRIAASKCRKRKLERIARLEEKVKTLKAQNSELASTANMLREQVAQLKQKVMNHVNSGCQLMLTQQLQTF

- IC50 (XBP1/CREBZF heterodimer): 0.136 µM
Molecule: EREAQLENRVAHLKEKNQELKAQNLHLKEALSEAQNRNQELKNDA [XBP1-d1]

- IC50 (ATF4/FOS heterodimer): 0.279 µM
Molecule: NQIKTLRTRLSKLRKDNLQLEKDIANLERKAKDLRAEKEQLEYEL [ATF4-d1]

- Kd [1]: > 5 µM
- Kd [2]: > 5 µM
- Kd (NFE2L3 (human)): > 5 µM
- Kd (ATF6B): > 5 µM
- Kd (MAFG [3]): > 5 µM
- Kd (NFIL3 (human)): > 5 µM
- Kd (FOS [4]): 1 µM
- Kd (MAF): > 5 µM
- Kd (MAFG [5]): 1 µM
B1: ATF4-d1 labeled at the C-terminus (designed binder)
chain: GESKEYKKGSGSNQIKTLRTRLSKLRKDNLQLEKDIANLERKAKDLRAEKEQLEYELGC
modifications: also: C59 label by assay: Rhodamine Red C2-maleimide or fluorescein-5-maleimide
notes: solubility linker after the His6 tag; added to the C-terminus for labeling; one molecule for the rhodamine- and the fluorescein-labelled form; the assay tells which label stood there; also called ATF4-d1-Rhodamine; ATF4-d1-FITC; source: E. coli RP3098, purified (Ni-NTA under denaturing conditions, reverse-phase HPLC)

- Kd (BACH2): > 5 µM
- Kd (FOS [6]): > 5 µM
- Kd (HLF (human)): > 5 µM
- Kd (CREBZF (human)): > 5 µM
- Kd (JUN): > 5 µM
B2: ATF5-d1 labeled at the C-terminus (designed binder)
chain: GESKEYKKGSGSKRIAYLRQRIAELRNENHVLESRIQRMEKEKDALQQDRDHLEYELGC(Rhodamine Red C2‑maleimide)
modifications: not fully specified
